Experimental data taken from the nanobody polyreactivity screen of Harvey et al. (2022).

Experiment: yeast display, Sf9 membrane polyspecificity reagent, FACS + sequencing; frameworks hold sequencing errors
How it was run: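 Genes from sorted yeast were amplified by colony PCR, read by MiSeq 2 × 250 sequencing and filtered on CDR length. These cells carried a synthetic nanobody library in Saccharomyces cerevisiae BJ5465 and were sorted by FACS into low and high (top ~1%) gates on anti-HA and streptavidin fluorescence. Polyreactivity is labelled according to the gate of origin.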

Row | Sequence | polyreactivity (PSR sort gate)
1 | QVQLVESGGGLVQAGGSLRLSCAASGRICGSYAMGWYRQAPGKERELVAAISWRGTSTYYADSVKGRFTISRDNAKNTVYLQMNSLKPEDTAVYYCAAAVDAFTNKQYYYWGQGTLVTVSS | low polyreactivity
2 | QVQLVESGGGLVQAGGSLRLSCAASGRICGVYAMGWYRQAPGKERELVAAITARGGSTYYADSVKGRFTISRDNAKNTVYLQMNSLKPEVTAVYYCATRLYKRTRTITYGYWGQGTQVTVSS | high polyreactivity
3 | QVQLVESGGGLVQAGGSLRLSCAASGRICWGYAMGWSRQAPGKERELVARITSGGDTYYADSVKGRFTISRDNAKNTVYLQMNSLKPEDTAVYYCAKSPAVKPYAYRESGFIYDYWGQGTQVTVSS | low polyreactivity
4 | QVQLVESGGGLVQAGGSLRLSCAASGRIFAAYAMGWYRQAPGKERELVAGISRGGRTYYADSVKGRFTISRDNAKNTVYLQMNSLKPEDTAVYYCAKRATGQYSITAYGYDYWGQGTQVTVSS | low polyreactivity
5 | QVQLVESGGGLVQAGGSLRLSCAASGRIFAAYAMGWYRQAPGKERELVAGISRGGRTYYADSVKGRFTISRDNAKNTVYLQMNSLKPEDTAVYYCAKRATGQYSITTYGYDYWGQGTQVTVSS | low polyreactivity
6 | QVQLVESGGGLVQAGGSLRLSCAASGRIFADYAMGWYRQAPGKERELVAAIDWSDGSTKYADSVKGRFTISRDKAKNTVYLQMNSLKPEDTAVNYCAADYWPRDGLGWWYDYWGQGTQVTVSS | low polyreactivity
7 | QVQLVESGGGLVQAGGSLRLSCAASGRIFAFNAMGWYRQAPGKERELVADITSSGVNTYYADSVKGRFTISRDNAKNTVYLQMNSLKPEDTAVYYCAARSYLRWWVGMEYCGQGTQVTVSS | low polyreactivity
8 | QVQLVESGGGLVQAGGSLRLSCAASGRIFAFYAMGGYRQAPGKERELVAAITSGGSTKYADSVKGRFTISRDNAKNTVYLHMKSLKPEDTAVYYSAAQYRYQRYSDAMEYWGQGTQVTVSS | high polyreactivity
9 | QVQLVESGGGLVQAGGSLRLSCAASGRIFAGYAMGWDRQAPGKERELVATISSGGSTYYADSVKGRFTISRDNAKNTVYLQMNSLKPEDTAVYYCAAEYGTRQYSSYYKLFNYWGQGTQVTVSS | low polyreactivity
10 | QVQLVESGGGLVQAGGSLRLSCAASGRIFAGYAMGWYRQAPGKERELLATISSGGSTYFAHSVKGRFTISRDNAKNTVYLQMNSLKPEDTAVYYCSAEYGTRQYSCYYKLFNYWGQGTQVTVSS | low polyreactivity
11 | QVQLVESGGGLVQAGGSLRLSCAASGRIFAGYAMGWYRQAPGKERELVAAISDGGTTNYADSVKGRFTISRDNAKNTVYLQMNSLKPEDTAVYYCAKVAAESYRYGYWGQGTQVTVSS | low polyreactivity
12 | QVQLVESGGGLVQAGGSLRLSCAASGRIFAGYAMGWYRQAPGKERELVAGISNRGGSTYYADSVKGRFTISRDNAKKTVYLQMNRLKPEDTAVYYCAVRRRSLGGYWGQGTQVTVSS | high polyreactivity
13 | QVQLVESGGGLVQAGGSLRLSCAASGRIFAGYAMGWYRQAPGKERELVARISRGDDSTYYADSVKGRFTISRDNAKNTVYLQMNSLKPEDTAFYFCAADYPDVVYLEYDYWGQGTQVTVSS | low polyreactivity
14 | QVQLVESGGGLVQAGGSLRLSCAASGRIFAGYAMGWYRQAPGKERELVASIRSSGSTYYADSVKGRFTISRDNAKNTVYLQMNSLKPEDTAVYYCNAVPRRRRYSRLGYWGQGTQVTVSS | high polyreactivity
15 | QVQLVESGGGLVQAGGSLRLSCAASGRIFAGYAMGWYRQAPGKERELVATITYRGGNTYYADSVKGRFTISRDNAKNTVYLQMNSLKPEDTAVYYCAKGPYRYLYRAYPGGYWGQGTQVTVSS | high polyreactivity
16 | QVQLVESGGGLVQAGGSLRLSCAASGRIFAGYTMGWYRQAPGKERELVAAISGSGGRTYYADSVKGRFTISRDIAKNTVYLQMNSLKPEDTAVYYCAAYRSRTYGYWGQGTQVTVSS | high polyreactivity
17 | QVQLVESGGGLVQAGGSLRLSCAASGRIFAHNAMGWYRQAPGKERELVAAISSSDGSTYYADSVKGRFTISRDNAKNTVYLQMNSLKPEDTAVYYCAARGSPSKHHWYDYWGQGTQVTVSS | low polyreactivity
